Source: patent US20260115255A1
Like-named read-outs stand apart in the source and are kept apart here.

Tests used:
[1] = target: IL-2/IL-15Rβγ on kit225 cells (UniProt P14784); test: cell-based or functional assay
[2] = target: PD-1 on PD-1 Effector Cells (UniProt Q15116); test: cell-based or functional assay
[3] = target: IL-2/IL-15Rβγ on kit225 cells (UniProt P14784); test: cell-based or functional assay; remark: listed apart in the source
FcγRIIIa V158 (human) = FcγRIIIa V158 (human) (UniProt P08637); test: SPR; ratio of affinity (1/Kd) for FcγRIIIa V158 to affinity for FcγRIIb
FcγRIIIa F158 (human) = FcγRIIIa F158 (human) (UniProt P08637); test: SPR; ratio of affinity (1/Kd) for FcγRIIIa F158 to affinity for FcγRIIb

Sequence of IL-2/IL-15Rβγ on kit225 cells (P14784 27-551 limits assumed, chain 1 of 2): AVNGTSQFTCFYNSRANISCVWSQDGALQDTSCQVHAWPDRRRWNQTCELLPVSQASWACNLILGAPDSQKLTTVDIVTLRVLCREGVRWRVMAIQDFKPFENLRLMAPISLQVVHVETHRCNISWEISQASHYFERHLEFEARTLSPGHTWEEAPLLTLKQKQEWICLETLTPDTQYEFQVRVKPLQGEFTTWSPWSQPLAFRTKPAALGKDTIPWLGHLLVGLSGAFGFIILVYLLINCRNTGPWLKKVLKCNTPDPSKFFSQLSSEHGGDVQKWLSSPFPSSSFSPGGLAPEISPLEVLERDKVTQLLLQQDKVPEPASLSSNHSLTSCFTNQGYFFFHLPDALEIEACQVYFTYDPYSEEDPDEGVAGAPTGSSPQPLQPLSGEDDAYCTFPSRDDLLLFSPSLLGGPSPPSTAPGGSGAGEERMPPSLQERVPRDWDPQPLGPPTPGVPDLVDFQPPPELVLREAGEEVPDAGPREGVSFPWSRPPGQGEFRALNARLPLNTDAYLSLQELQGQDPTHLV
Sequence of IL-2/IL-15Rβγ on kit225 cells (P31785 23-369 limits assumed, chain 2 of 2, further chain): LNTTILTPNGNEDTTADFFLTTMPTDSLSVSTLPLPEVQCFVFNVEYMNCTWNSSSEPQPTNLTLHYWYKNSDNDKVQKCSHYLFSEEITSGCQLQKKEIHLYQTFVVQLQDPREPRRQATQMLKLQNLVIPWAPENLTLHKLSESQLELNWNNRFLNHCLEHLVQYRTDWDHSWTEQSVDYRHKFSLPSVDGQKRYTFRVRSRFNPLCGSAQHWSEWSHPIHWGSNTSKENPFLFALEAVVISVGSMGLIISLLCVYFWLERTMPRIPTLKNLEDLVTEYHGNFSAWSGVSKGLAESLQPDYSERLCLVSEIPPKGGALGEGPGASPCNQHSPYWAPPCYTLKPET
Sequence of PD-1 on PD-1 Effector Cells (Q15116 25-288 limits assumed): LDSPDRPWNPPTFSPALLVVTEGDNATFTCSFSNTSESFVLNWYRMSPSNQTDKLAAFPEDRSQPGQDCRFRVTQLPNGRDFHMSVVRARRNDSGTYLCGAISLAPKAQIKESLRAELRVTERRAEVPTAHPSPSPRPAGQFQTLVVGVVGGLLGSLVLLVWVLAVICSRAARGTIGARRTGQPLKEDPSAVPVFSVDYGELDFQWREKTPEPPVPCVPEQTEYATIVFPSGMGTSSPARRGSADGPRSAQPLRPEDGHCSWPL

Row | EC50 kit225 cells [1] [pM] | Relative potency to SOT101 [1] [%] | EC50, PD-1/PD-L1 Blockade Bioassay [2] [nM] | Relative potency vs Keytruda [2] [%] | EC50 kit225 cells [3] [nM] | EC50 on kit225 cells [3] [nM] | Relative potency to SOT201 [3] [%] | A/I (V158) (FcγRIIIa V158 (human)) | A/I (F158) (FcγRIIIa F158 (human)) | Substance
1 | 3020 | 1.19 | 4.57 | 38.6 | 3.94 | 3.02 | 455 |  |  | PD1-IL2v
2 | 249 | 14.4 |  |  |  |  |  |  |  | SOT201 wt (with RLI2AQ)
3 |  |  |  |  |  |  |  | 161 | 32.9 | Zolbetuximab (antibody)
